The numbers were not newly measured in publication PMC12493192, which cites them from elsewhere.

Read-outs that look alike come from different tables or passages of the source.

As usually defined, the Kd is a measure of binding affinity in units of concentration.

Series [1] concerns the target GC-C (Homo sapiens) (UniProt P25092).
Series [2] shares this target. This is another data set of the same source.

UniProt P25092, sequence (P25092 24-430): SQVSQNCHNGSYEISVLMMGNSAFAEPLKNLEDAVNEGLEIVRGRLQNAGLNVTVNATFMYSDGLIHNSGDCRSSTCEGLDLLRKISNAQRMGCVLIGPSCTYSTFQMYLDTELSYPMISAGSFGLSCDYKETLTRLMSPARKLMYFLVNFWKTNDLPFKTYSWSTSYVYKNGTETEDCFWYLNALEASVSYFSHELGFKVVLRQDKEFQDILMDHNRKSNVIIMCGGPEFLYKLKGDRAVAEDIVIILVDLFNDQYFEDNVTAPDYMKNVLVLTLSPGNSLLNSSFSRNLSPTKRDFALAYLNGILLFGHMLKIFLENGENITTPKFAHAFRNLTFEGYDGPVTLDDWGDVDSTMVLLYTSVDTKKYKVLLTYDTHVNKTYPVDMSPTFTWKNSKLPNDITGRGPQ

On to uroguanylin (from UniProt Q16661), for which the equilibrium dissociation constant (Kd) in series [1] was 1 nM.
Regarding guanylin (from UniProt Q02747), the Kd in series [2] is 10 nM.
